Experiment: soluble on expression in E. coli; label from the status in PepcDB or PDB records

Sequence	soluble on expression in E. coli
MGSDKIHHHHHHMELFRLHYFLELCKVKQFTKAAENLAISQAALSKQIKILEATLGAELFNRQGQTTTLTPAGLILEKYCWRITNELVSIEEELKEINHSSNHIYVATYLCDLEYKLNDLLMTTLTDRSSNLQVHTIITENILQSLETMDADFGISFADLPLPEHIGKIDLFTANYQFILRNDHPALAKATTEEILKELTMYPFVRLNTEFSEQNKLTNWLDTTFSNFSPEKVIQVDTLSLITHLVSHSDSFAIVPEYTNIQLLDNSIHTLTYQELPKRNMAVYYLKERYMSRQLQQLLAECQKQFQ	not soluble
MGSDKIHHHHHHMDISIARTFLEVVKTGSFVNAAANLNISQTAVSARIRVLEEQLDRPMFVRNKAGARLTPAGEQFFRFATSLVQVWEAARTTVALPPGREAMVTIGAELSLWNPLLKHWLLWMRRECASVAIRTTIDRSERLMELVQDGSLDAAVLYGAPNRPGTLTELLFEEKLVLVRTTALSQPPGPEDLVGIDWGEDFAGSYRAAFPGGRNPVVAISYGPLALDYILEVGGSGYFRQGFVRPYLVDGRLELVPNSPEFAYPAYLVSSAKADRSMLDRIRAGLRAAASSAGV	not soluble
MGSDKIHHHHHHMQDTKYYEPTNIFRQPAINIKKRSDKKRILQSMMTLSTYKKTWQNNTSKMNSPILRKASDNFNDYYTTKKLKSDYWKLYGVDESELSIPSDMSIVDNILLVSTMNEKDNLKLFEISAEKKLKELQTITVPGKPITCICLLPMVDFPPQIFPSSQINPNHNQLILTGHQDGIVNLIATSTYKGCAKIIKRFNHNKFLKSTVSTSIPILEITPKTAPILKVSPWNKTGFVSLLNDSLFIYDLKSNLDCIKTPIFLQSYPGINSFAVNEFHDPFLLALVGSKFGPNGISLLDLRTNLYIPDILDNSISAGCGKDHLQRKNTSLDCVWISNHHVAQSLNDKIQIWDIQSCDGKPVCELYAKKGYIESLKFNENTGALYSSDDQGFVICWDLQNLQNMKYGELVHGFNSISLDSESELLLTKQVFQCGNIIVSGMSDKNICLKSNDTKANGKGCGFLFLDMANDGSLVTLDNFCELGLHQICQVQFNVDTGKIIDGNGTGKSGISDSSMLSLSNESDHSMTETSDDMFSNSGNWDCSSANTVSEGRLNDDQEDIVFTKRMYSVNDVHLSGSTIDTTVV	not soluble
MSKAGASLATCYGPVSADVMAKAENIRLLILDVDGVLSDGLIYMGNNGEELKAFNVRDGYGIRCALTSDIEVAIITGRKAKLVEDRCATLGITHLYQGQSNKLIAFSDLLEKLAIAPENVAYVGDDLIDWPVMEKVGLSVAVADAHPLLIPRADYVTRIAGGRGAVREVCDLLLLAQGKLDEAKGQSI	soluble
MSLNTGINCPFDCGLCARHRSHTNLLNIVLTNRCNLSCWYCFFYAREGEPVYEPTLEQIRMMLRNAKKENPIGANAVQFTGGEPTLRDDLIEIIKIAKEEGYDHVQLNTDGIRLAFEPELVKKIREAGVNTLYLSYDGMTPQTNWKNHWEIPLIFENVRKAGGPGIVLVPTLIRNVNDHEAGAIINFGLNHLDIVRGVNFQPISLVGRVPKKERQRFRITIAGAIKKIEEQTNGAISRDDWYPIPIAGYIARFFEAFTGKHYYMTSHYACGAATYVFLDKEEKKVIPIPRFIDVEGFVEFLVEKAEEIERARFKGLAKLKAIGETVFIKFKQFYDEKYAPKGLDVLGLIKNAFMHGNYDALGQFHTKTLFLGMMHFMDEYNYDVERVERCVIHYAMPDGRIVPFCTFNVIPEIYRDKVQRQFSYSWEEWKKLHPDWDYKKDKYFRTREFVEKMKNSELYRKTYIDIVNYFEEGHHHHHH	soluble
MVSLRELRGGLMSNKYCQALVELRNKPAHELKEVGDQWRTPDNIFWGINTLFGPFVLDLFTDGDNAKCAAYYTAEDNALAHDWSERLAELKGAAFGNPPYPWLEHHHHHH	not soluble
MAHHHHHHMSWLTPSGSSYFLSKVVVNSAPCAPLHLLVMHRCRVAFPCVNYRPLLWRGMLQVPSRPTICDNSLKVQLRHSRISSFKQEGYYRFARAKDIHVDESCFTLLTARGGGPGGQGSNSSSNKVEMRVNMASLSEYFDEELIGNIKANECGKALTSDETQLIISSHEHRSMYQNKEECIRRLQQMIHVASWVPPVEANPIKKPSHIVSERKNERRKKSAVKKMRQTARKGLW	not soluble
SAASAALILPESPSMKKAVPLINAIDTGRFPRLLSRILQKLHLKAESSFSEEEEEKLQAAFSLEKQELHLVLETISFVLEQAVYHNVKPAALQQQLEMIHLRKDKAEAFASAWSAMGQETVEKFRQRILGPHKLETVGWQLNLQMAHSAQAKLQSPQAVLQLGVSKEDAKNVEKVLVEFNHKELFDFYNKLETIQAQLDSLT	soluble
MSLFRFMKYKLFIDFEFNILDDNKNKPKEYNGAELISIGGILVDNEFNTIDNYYSLVKPKYNKILSNKCKNLTKLNQLDINNAPNLLYVMDDFYKWFCKFDDVTIYNWGDFDITGLLTSFRVYKYTGKCLELFNMMIDIQPFISQHITYNNRILSKQISLLNMKKIFSVEGDIKHNSLSDAVDLMNVCKCFFFNSPKNIDILEELYNKLPALKTEGHHHHHH	soluble
MMGFEKVEHLLPDTVLDIVDVIGLAATEQLVKAIGGARFKFGKGKVDTERLAILVEAIGEVKTHELLQVYGGEELYVPRCGKALIQLRNHRFYQEFVKLRDIDKKSGLMAMTKLCPKYGISSRTGYTIINEMSRPAAQQAALF	not soluble
MMKNDEQDDVDVVNVPTNIDFQCNLCEYVGKSDRSLSAHKRHRHPRPEGQEDDKKPRGRPKKYEDSPVPLQRVTTKQLLGGRKRPKTIVECVDDSAIRTDKEASRLHGLGIIDEETSLGDYVRRGANYQLMGGSDMNLDGNSMIVGQEVVIDHEEDEENDDSPMLDSIPAGKNLERRKIRKSGRACASIRLSAKNRQISRSSHMRKVHPNEHAERKRNAPGYNSNGTYNCHFPLCQWRGWSRSTRSTHLRKAHPEWRPDDNRVMTVLSCFYCKSSFHTYAQLADHTITHGGLALMISQSFDNKHHFSAWLQQMERVYSVTFERSEFGSDPELQDLHNYVLHCDCVGGRGEQLATDSRAYIDQKHTNFKFSGAYIYQKHNFLKRRHPQLLTRNKNDCCVHLEVREDSEYGPIHVKGTLEHTGHRFGTPLLRMLFEGFTMDHYTTPRSVILMEPLHTNQFQSLREFIEAPSTSTYQNPYFSVDFGDSPEQFSFGYMSDEMQKLWSKYAPGRTITIDSSPLEFGEVDLFQYSVIVTDENYIPKCAMIYVTTDNSRAPHTILRQMKAVEPRPPTIFMVDPSQLWVELIQDLWPTDLDNPESEVTILISEWTLMDYWAAKTEELVKNEFDVFCIVTALRRMLRVEDAHQLYYTIVELFEAFFECGYDGLAEFFDAQLSDMEYFKRWGPLHRTTLTSHAHPTLGASFRILRDWYLNPANMDHDAPRVDQWFSHICQRIEDFNAITNTQTYTLRPLDPPHKFFYTTVEDEEGEEAEHENPFKNPQILMYDDDGDEVVVEEEIIGHEIDGASELQGSELPDEEVIYETYEDYPEYGGHYDLEEEHKMHHNMRLEEEELQQHLHEQQKPEHLSHQTEELGELQDHHHHHHHHLDEDPEATAEGPSEIVEHDDEEEQEDLVDVEMVDDQHEQHEIPAKIPPHRQRLYQKLDPMPVISHELPRSPSRRIRIPTRKIQELDQESVLPPPPRRETTRSVVRSRKRRDRFAELRDCPPEVMRAIAAHAIAYDGRKKEQRPIVYVPRQAKMAMSSTPTAPTPPEDYDGPPGHQMTTILQHQRQAKQEEEEEQWSGEYDDELHEQEHDPATSSPPPSLLPHTGPSEIVHHEEEVHMMLPEEEADLMDDDDQQPCTSASMYR	soluble
SLDLNDTYSGKREPFSGDHSADGFEVTSRSEMSSGSEISPVSEMPSSSEPSSGADYDYSEEYDNEPQIPGYIVDDSVRVEQVVKPPQNKTESENTSDKPKRKKKGGKNGKNRRNRKKKNPCNAEFQNFCIHGECKYIEHLEAVTCKCQQEYFGERCGEKSMKTHSMIDSSEG	not soluble
MVTIANDFLTVKISRHGAELTSIKDNLTGRERLWQADPAVWGRHAPVLFPIVGALADNQYHYAGKTYHMGQHGFARDRDFTVLSATPFKASFVLKDDDKTRAMYPFAFRLIITFALENNNLHVTYHVDNPDKSEPLFFSIGGHPGFKVPMTPDTQFSDYYLNFKPRKSLVQIPLVAGEGIDYTHRTLAATDANLALTHETFDHDALIFALLGKTTFNLVSDKTKHGVSVTMTDTPYLGVWSPYPTTGDFVCIEPWWGIADTIGSTGDLTRKLGINRLEPGTAFEKGYMISIFLEHHHHHH	not soluble
MDYRVLLYYKYVTIDDPETFAAEHLKFCKEHHLKGRILVSTEGINGTLSGTKEDTDKYIEHMHADNRFADLTFKIDEAESHAFKKMHVRPRREIVALDLEEDINPREITGKYYSPKEFKAALEDENTVILDARNDYEYDLGHFRGAIRPDITRFRDLPEWVRNNKEQLDGKNIVTYCTGGIRCEKFSGWLVKEGFENVGQLHGGIATYGKDPETKGQYWDGKMYVFDERISVDVNQIDKTVIGKEHFDGTPCERYINCANPECNKQILVSEENEEKYLGACSYDCAKHERNRYVARHHISNEEWQRRLNNFKDVPEHTHALEHHHHHH	soluble
MEVLKVASNSNPNKVAGALAGVIREKGKAELQAIGAGAVNQAVKAIAIARGYLAPSGINLVCVPAFAEVQINGETRTAIKFIVFPKD	not soluble
GPGSMERVTYARTGALRSTYAGLPVTKERLVTAAPAKWFPLLTTVPQRVLKSISDSDGVDGSLLGFLPIAFVFEELRKHLSDFTQHAAFLRAVLQWYHQTAGDTLESEIATDKVEIFQPYLPAYRLRVLKEGETVATFNDISRRAVTLMGKDRGINDIPLDHPSCSAQHAALEVNFVHRNSEPFQQRLHTLMQEEYRNINWSSPDEVGKLCAHALQLMREFGGDEDMWLMELQVVDLGSTNGTNLNGELLRPLERATVIEGDVLTFGYSTRKYLIVRA	soluble
MSDTPSKKQKRRATIFVTGPQSKKTIFEGEEIKEEGNQTTLQDLAIARQRLHNELAVVNTTSGIEILMQIVMDELEVVRHRLRENGQRMRNFFGDGAVQIRAILIRIFSKSISSRNMLEYKKDAKVILNELCDQNITYKMPRYTLNDMEEILLTDDLEDGVIQRRSEKWECLPERQKPMFDEDEDAFCEFRKMNVPMSMTFDDDDEDRLSMPSTRTGVTALTTEDQMAAIQNQLAMLSKQLMCLQKSGVETKRASSRASSRRGGIIAKKASLEISSNSSSDVSEDEGKGPSVCSPSSSSKTSTASVQLAPMCMAPPPPPPPPLPKMSQKIPLSEIKSDNKLSTVTPSKPAEKKSSPKSLPPAETIVSNRPYLTDIAHGRSMLKKTVRSPGGSPACQVRHQKRPVSSFEAALRDRFRGFHGDASFSEQEENGEDDDLSATWDE	not soluble
MSLESENIISAADKARILAEALPYIRRFSGSVAVIKYGGNAMTEPALKEGFARDVVLLKLVGIHPVIVHGGGPQINAMLEKVGKKGEFVQGMRVTDKEAMDIVEMVLGGHVNKEIVSMINTYGGHAVGVSGRDDHFIKAKKLLIDTPEQNGVDIGQVGTVESIDTGLVKGLIERGCIPVVAPVGVGEKGEAFNINADLVAGKLAEELNAEKLLMMTNIAGVMDKTGNLLTKLTPKRIDELIADGTLYGGMLPKIASAVEAAVNGVKATHIIDGRLPNALLLEIFTDAGIGSMILGGGEDAEGHHHHHH	soluble
MGSDKIHHHHHHMRPDMFIGSYERSGGHGLYPAWLDSLGAISLGPPDTRIGNASFGLLDHRCGTAWFVEEQEPGAVSAWQWDDQVWTPLGRIGTGGASPCHLVRSPDGTLLAVANNDGGVAALVELDPETGALGKLAGVLRNEGGARSHAGCVRFAGDRIFIADRGLDRVLSCEYGAAGFGEVRTAFAAPRGSGPRQLLLRDDLALLACELTARLMLLRATGEGFELLDDIATDAAATPGNLAGHLAFQGDRIFVSNRGADTVASFRIDGERLRREDCWSSHGRSPRHFAMCGSYLVVTNEQDGIVCVLDIANGGRIAGTAIVPGAAFVLAMPL	not soluble
